Data published in US8663642B2, “Anti-CD70 antibody-drug conjugates and their use for the treatment and prevention of cancer and immune disorders” (priority 2003, dated 2014).

Assays:
[1] = test system: CD70^+ CD8^+/Vβ17^+ T cells; assay: In vitro deletion of M1 peptide-specific T cells (flow cytometry, viable counts); assay type: cell-based, human
Description: PBMCs from a normal HLA-A0201donor were stimulated with the M1 peptide for 5 days. 1F6 ADCs or control non-binding IgG (cIgG) ADCs were added to cells to a final concentration of 1 μg/ml. Total viable cell counts were conducted at 24, 48, and 76 hours post drug addition. Total numbers of CD8^+/Vβ17^+ for each culture condition are calculated (upper panel).
FIG. 19: Dose-response comparison of anti-CD70 ADCs on deletion of antigen-specific CD8^+/Vβ17^+ cells. PBMCs from a normal HLA-A0201donor were stimulated with the M1 peptide for 5 days. 1F6 ADCs or control non-binding IgG (cIgG) ADCs were given to cells to the specified final concentrations. The percentages of CD8^+/Vβ17^+ cells 4 days post ADC addition was determined by flow cytometry as in FIG. 17.
To examine CD70 expression on activated antigen-specific T cells, PBMCs from a normal donor expressing HLA-A0201 were stimulated with the M1 peptide. PBMCs were seeded at 2×10^6 cells/ml with 5 μg/ml of M1 peptide in AIMV medium supplemented with 5% human AB serum. IL-2 (Proleukin, Chiron) and IL-15 (R&D Systems, MN) were added to final concentrations of 20 IU/ml and 5 ng/ml, respectively, once every two days beginning on day 2 after culture initiation. The expansion of CD8^+/Vβ17^+ T cells and induction of CD70 on the CD8^+/Vβ17^+ was followed by three-color flow cytometry. Vβ17^+ T cells were identified by the anti-TCRVβ17 mAb clone E17.5F3 (Beckman Coulter, Miami, Fla.).
PBMCs from a normal donor expressing HLA-A0201 were stimulated with the M1 peptide as described in Example 11. On day 5, cells were harvested, washed, and re-seeded at 0.5-1×10^6 cells/ml (approximately 100,000 of CD8^+/Vβ17^+ T cells) in fresh AIMV medium supplemented with 5% human AB, 20 IU/ml of IL-2, and 5 ng/ml of IL-15. 1F6 or control non-binding IgG (cIgG) ADCs were added to some cultures to a final concentration of 1 μg/ml. Total viable cell counts were conducted 24, 48, and 76 hours after ADC addition. Two-color flow cytometry was conducted to determine the percentages of CD8^+/Vβ17^+ cells among the viable cells. The absolute number of CD8^+/Vβ17^+ T cells in each culture was then calculated. […] The effects of 1F6 ADCs on the CD8^+/Vβ17^− cells were also evaluated.
The potency of three 1F6 ADCs was then compared. HLA-A0201 PBMCs were stimulated with the M1 peptide and re-seeded as described for FIG. 18 with the various ADCs at the indicated concentrations (FIG. 19). The percent of CD8^+/Vβ17^+ T cells after a 96-hour incubation was determined.

[2] = test system: Caki-1 tumors; assay: Caki-1 subcutaneous xenograft model of RCC; assay type: in vivo, nude mice; parameters: average tumor size: dose or concentration left out as unconfirmed
Source text: Tumors were initiated in nude mice by implanting tissue tumor blocks (30 mm^3 in size) containing Caki-1 cells. Treatment began when average tumor size within a treatment group was around 100 mm^3. In the upper panel, treatment for the IgG and 1F6 groups began 17 days post implantation (filled arrow), while treatment for the 1F6-vcAFP and IgG-vcAFP groups began 25 days post implantation (open arrow). Indicated doses of either unconjugated mAbs or their ADCs were given for one course on a q4d×4 schedule.
Using xenografts of the Caki-1 line in nude mice, the […] antitumor activity of 1F6-vcAFP was tested. To establish Caki-1 tumors, nude mice were injected subcutaneously with 5×10^6 Caki-1 cells in 0.2 ml PBS. […] Caki-1-containing tumors were excised from tumor bearing mice and tumor tissue blocks of approximately 30 mm^3 were prepared. Naive nude mice to be used for evaluating in vivo antitumor activity of anti-CD70 ADC were each implanted subcutaneously with one tumor block of 30 mm^3. […] Treatment was initiated when the average tumor size within a group was approximately 100 mm^3 (FIG. 12, arrows).

[3] = test system: CD70^+ hematologic cell lines; assay: 3H-TdR proliferation assay, panel of CD70^+ hematologic lines; assay type: cell-based, human; conditions: all the responsive cell lines tested
Description: FIG. 5: Effects of anti-CD70 ADCs on the proliferation of transformed hematologic cell lines. A subset of the CD70^+ cell lines shown in FIG. 4 and the CD70^− Jurkat cell line were tested for their sensitivity toward 1F6 ADCs. Graded doses of the 1F6-vcMMAE, 1F6-vcAFP, or the corresponding non-binding control IgG (IgG) ADCs were added to cells at the initiation of culture. Cells were exposed to the ADCs continuously for a total of 96 hours. Proliferation was determined by pulsing with ^3H-TdR during the last 16 hours of incubation. The upper panels show the response of the WSU-NHL and Jurkat lines. The lower panel summaries the responses by the tested cell lines to 1F6-vcMMAE and 1F6-vcAFP in form of IC50s.
A subset of the CD70^+ hematologic lines listed in FIG. 4 was tested for sensitivity to the 1F6 ADCs. These lines were seeded at 5,000 cells per well in 96-well plates in quadruplicates in a total of 200 μl of culture medium containing graded doses of the ADCs as indicated in the FIG. 5 and the accompanying figure legend. Proliferation assays were carried out for 96 hours. Tritiated thymidine (^3H-TdR) incorporation during the last 16 hours of incubation was used to assess DNA synthesis. The responses of a CD70^+ B lymphoma cell line WSU-NHL and the CD70^− Jurkat cells are shown in the upper panels of FIG. 5. […]

B1: 1F6-vcAFP: anti-CD70 mAb 1F6 linked to auristatin phenylalanine phenylenediamine by the valine-citrulline (vc) dipeptide linker (conjugate)
VH: QIQLVQSGPEVKKPGETVKISCKASGYTFTNYGMNWVKQAPGKGLKWMGWINTYTGEPTYADAFKGRFAFSLETSASTAYLQINNLKNEDTATYFCARDYGDYGMDYWGQGTSVTVSS
VL: DIVLTQSPASLAVSLGQRATISCRASKSVSTSGYSFMHWYQQKPGQPPKLLIYLASNLESGVPARFSGSGSGTDFTLNIHPVEEEDAATYYCQHSREVPWTFGGGTKLEIKR
modifications: non-natural residues
notes: anti-CD70 mAb 1F6 linked to auristatin phenylalanine phenylenediamine by the valine-citrulline (vc) dipeptide linker
[1]; 1 μg/ml, 76 hours after ADC addition
  number of CD8^+/Vβ17^+ T cells: Virtually no expansion
[1]; 1 μg/ml, end of the experiment
  CD8^+/Vβ17^+ cells, of the control untreated culture: < 40%
[1]; 96-hour incubation
  inhibition of CD8^+/Vβ17^+ T cell expansion: dose-dependent inhibition
[2]; 1, 56 days after treatment initiation
  average tumor size: < 600 mm^3
[2]; 3, 70 days after treatment initiation
  average tumor size: under 200 mm^3
[2]; Caki-1 xenograft, q4d×4
  therapeutic activity / tumor growth: significantly inhibited tumor growth
[3]
  relative inhibitory activity: more potent inhibitory activity than 1F6-vcMMAE
